Test results: patent US20020022718A1, “Genes identified as required for proliferation of E. coli” (priority 1999, published 2002)

B1: EcXA159: antisense clone insert to E. coli b0482 (nucleic acid, listed as Escherichia coli)
antisense: AAAAAATGAAATTCCTCTTTGACGGGCCAATAGCGATATTGGCCATTTTTTTAGCGCAACATTTGCGGCAAATTCCCTTCTCCATACAGGTGTAGTGCACCGACCGCGACCACATATCGCCCCGGCGGCATGGCGCGTAATTTATCCCGCCAGGCGAGATTTCGCTGATGCATCAGCACATCGTACAGCGACTGACTGAACGTATTGGGCAGCGTTATATCATTATTTTGCGGCGGTGCATTCAGCCACCAGCTCATCATTTGTTGCAGCAACCGTGCGTTGGTATGCCAGTGGGTCAGCGTATCGTCCAGCAGCGCCAGTCCTTTGTCAGGGAGCTGGAGCAACATGGCAATCTGGTTTTCAGCCCCTTCCAGTTCAATCACGGGTTTATGTTGTTGCTTC
B2: EcXA148: antisense clone insert to E. coli rffM (nucleic acid, listed as Escherichia coli)
antisense: GCAAATGTTTTCGTAATTCAGGAGAAATGGCAAATAAAGCATTAAAAATTTGAATGCTTTGTGTAATAAAAAAGCAGACAGGCGACGGAGTGACCACTCCGTCGCTTTACAAAGAGAGGAAAATCATAGGTTGCCGGTGTAGTGCCAGCGTAAATAACGCA
B3: EcXA150: antisense clone insert to E. coli spoT (nucleic acid, listed as Escherichia coli)
antisense: CCGGGGCTGACGTGGGCGATAATCGGGTCGCCAGGAATAGGGCGGCAGCATTTCGCAAAGGTGATCAGCACGCCATCGGCACCTTTAATGGGCAGATGTCCGTGGCTTTGGGTTGCCGGTGGAATGGAGGCGTCCCCATGTTGCAGATTTTTCGCGACCACCACGCTCATTGCGTTACCA
B4: EcXA154: antisense clone insert to E. coli b1983 (nucleic acid, listed as Escherichia coli)
antisense: TTCTGTAATCAGAAAAAGAAGAACTGGAATTTTAATAAATATTATTTCTCTGGGAACGGGGGGGTATAATCAATATGACGAGTTGAATATTATATTTTTTATAAGAATTATATGAGATTAAAGAAATCTGCCGTAAAGACAGATTTCTTTAAAAGATAATTAGAGATTTGCGACGTTATGATAAACTTTTTGTACATCGTCGTCATCTTCAAG
B5: EcXA153: antisense clone insert to E. coli yjbI (nucleic acid, listed as Escherichia coli)
antisense: CAACATCTCATGTCTGGATTTGTAGATATACGTGGAATTCCAATTGGTATCTTTTGTAGGATTCAACATATCATGTAAGCGCTGGGAGCTTACCACCATAACTGGCCCATCATCGACTGAGGAGAACAGGATAAAGATATTATCGTTTCGTGTTAATTCATTCGTGTTAAAGGTTCTTAAATTATCTTCAGTTTCTATAAATATAGG
B6: EcXA151: antisense clone insert to E. coli dctA (nucleic acid, listed as Escherichia coli)
antisense: TGTCGAGCATACGCGGCAGCGCCGACTCGGAAGATGAAGTCCCCAGTACAATCAGCAGTTCTTCACGGATGTAGCGGATAAATTTGAAGATACTGAAACCAGTCGCTTTAGCGATTGAACCCAATACCAGCACCACAAACAGGATACAGGTAATGTAGAAACAGATAATCAGCTGCCCCAGTTGCACCAGTGTGCCGACGCCGTATTTACCGATGGTAAACGCCATTGCCCCGAACGCACCAATAGGTGCCAGA
B7: EcXA142: antisense clone insert to E. coli rpmJ, rpsM (nucleic acid, listed as Escherichia coli)
antisense: TGCGATTACGGCATGCTTATGATCAGGAATGTTAATGCCTGCTATACGGGCCACTATGCACTCCTACTATTTAATATGTACGTTCCATGCTGAAAAGCCCGTTTTCAGGATACTCAAATGGAAACGCACAGACATACAAAAGATTGGCTGGCTAATCTAGCCAGCTCAACCCAACTTTGCAAGAAAAATATGCGAAAAAATCAGCCTTGGCGCTGTTTATGCTTCGGCTCGGCACTGCAAATCACACGGATGACA
B8: EcXA146: antisense clone insert to E. coli pstB (nucleic acid, listed as Escherichia coli)
antisense: GTAGAAGTTCAAATTACGAACCTGAATTTTACTCGGGGCAGTTTCAACCATACTCATTGCAATCTTTTCCTCATCGTGCCTGATGCACTTCGCTAATCAGGCTTACCGTAGGCCGGATCAGG
B9: EcXA143: antisense clone insert to E. coli b2846 (nucleic acid, listed as Escherichia coli)
antisense: AACGTAAAACTTTACGTAAATTAACATGGTTAACATTTATGCCACTATTGTTTGTAAATTCATATTTCGTAATGCTTCTGAATTTTTCGTGTGATGGTTTTAAATACTATGGTGTTTACTCTTGAGGGGACGGCCTATTTATAAAATACGGACATTTCAATAAATGCCCGTATAAACAGAGTATGATTCTGGCTGGTCGTTGAGTATCAATGTTGGACCGAATGTGAACGAATAAATAATTCGTTTATTTTACCACCCATTCTCTTTTCGATTCGTTGCTTGTACGCGTAGATGCTACGGATATCCATATCCAGAACTTCAGCAATCTGATATGGATTATAACCAGAAACCATATACCCCATTATGGTGAATTCCATCTGAGTTAATGT
B10: EcXA158: antisense clone insert to E. coli b2519 (nucleic acid, listed as Escherichia coli)
antisense: GCTGGTGCCCGTTTTCCATGCCAGTGGGGCGACGCGCGGCAAGGCACTATCCGGCAAGGGTTGCGCTTCATCAGCCATAATCCGGCGAATGATCCACGCCGCCCCCGACGACATTAAAGGCCGTTCAAGCAGCGGATCGTCAGGCTGTAAGCGCAATTTGCCTGCCTTGCCGTGGCGAGCAAACGCGGTA
B11: EcXA157: antisense clone insert to E. coli rpsC, rplV (nucleic acid, listed as Escherichia coli)
antisense: TCCTTAGTCAGGTACTGACGTACTTTAAAATCGCTGTCCAGGTTGTCAGCGAATTCTTTGGTGTTCGCAAACCAGGTAGAGTTCCATGGTTTTACAATACCCAGGCGAATACCATTAGGATGTACTTTCTGACCCATTGCTAGTCTCCAGAGTCTCAGCGATCGGACACAACCACAGTGATGTGGCTGGTG
B12: EcXA156: antisense clone insert to E. coli yihN (nucleic acid, listed as Escherichia coli)
antisense: AAATAGACCGGCATACTTTCGTGCGGCAGCATAATCAACAGTACGAGCGCAGCGGTACTAATGATAAAGGTGTAGCATAGATATTTACTTGGCGATTTCAGGATCTTATCTGAAATCATGCCACCAATCGGTCCACCAATCATTTTCAGACAGT
B13: EcXA147: antisense clone insert to E. coli b1111 (nucleic acid, listed as Escherichia coli)
antisense: TAAATTCCGCGTATAGCGTGGGCGCTTTGGCTCCGGTCGCTTCGACGAGGTCCGCAAGAGAAGTCGCTTCATAACCGTGTTGCCAGAACAATTTCATGGCCTTATCAAGCGCGGCATCCCTGTCGAACACTTTTGGGCGGCCACGGCTTTTTTTTACACATTG
B14: EcXA152: antisense clone insert to E. coli bcr (nucleic acid, listed as Escherichia coli)
antisense: AGCTGATCGATGGTGTTTGCCAACGCACACGCCACCGCGGCGGCGGCAAACACCANCGTACCGCCGAGCACCACCGGCTTACGCCCGAAGCTGTCTGCCATCGGCCCGTAGATTAACTGCCCCAACGCAAAGCCCAGAATATAAGTACTGAGGGTCATCTGCGTACTGCCCGNCGGTACGCCAAACTGCGCTGAAATTACCGGTAGCGCGGGCAGATACATATCAATCGACAGCGGCATCAACATGGCCAGCAGGCCAAGGATAAAAACAATAGCAAACGACGAATGCTGTCGGGTGGTC
modifications: misc_feature (1)...(300): n = A,T,C or G
notes: antisense clone insert to E. coli bcr
B15: EcXA145: antisense clone insert to E. coli thyA (nucleic acid, listed as Escherichia coli)
antisense: TCGAAGAATTTAACGGAGGGTAAAAAAACCGACGCACACTGGCGTCGGCTCTGGCAGGATGTTTCGTAATTAGATAGCCACCGGCGCTTTAATGCCCGGATGCGGATCGTAGCCTTCAATCTCAAAGTCTTCGAAACGGTAGTCGAAGATGGATTCGGGTTTACGTTTGATAATCAACTTCGGC

Tested on: Klebsiella pneumoniae
Assay: Growth inhibition by induced E. coli antisense RNA in Klebsiella pneumoniae
Type: cell-based
Parameters: key: +: a positive in Table V below means that at least 10 fold more cells were required to observe a colony on the induced plate than on the non-induced plate; −: If there was no effect of antisense RNA expression in a microorganism, the clone is minus in Table V below
Conditions: antisense RNA expression induced with IPTG, serial dilution plating
Experimental: To study the effects of transcriptional induction in liquid medium, growth curves were carried out by back diluting cultures 1:200 into fresh media with or without 1 mM IPTG and measuring the OD450 every 30 minutes (min). To study the effects of transcriptional induction on solid medium, 10^2, 10^3, 10^4, 10^5, 10^6, 10^7 and 10^8 fold dilutions of overnight cultures were prepared. Aliquots of from 0.5 to 3 μl of these dilutions were spotted on selective agar plates with or without 1 mM IPTG. After overnight incubation, the plates were compared to assess the sensitivity of the clones to IPTG.
Molecule No. EcXA190, encoding a portion of the b3052 gene of Escherichia coli, was either transformed directly into Enterobacter cloacae, Salmonella typhimurium and/or Klebsiella pneumoniae or subcloned into an expression vector functional in these species and the subclones transformed into these organisms. Suitable expression vectors are well known in the art. These expression vectors were introduced into Enterobacter cloacae, Salmonella typhimurium and/or Klebsiella pneumoniae cells that were then assayed for growth inhibition according to the method of Example 1. After growth in liquid culture, cells were plated at various serial dilutions and a score determined by calculating the log difference in growth for INDUCED vs. UNINDUCED antisense RNA expression as determined by the maximum 10 fold dilution at which a colony was observed. If there was no effect of antisense RNA expression in one organism, the clone is given a score of zero “0” in that organism. In contrast, a score of “8” means that 10^8 times more cells were required to observe a colony formed on the induced state than in the non-induced state under the conditions used and in that organism.
In addition, the above methods were validated using other antisense nucleic acids which inhibit the growth of E. coli which were identified using methods similar to those described above. Expression vectors which inhibited growth of E. coli upon induction of antisense RNA expression with IPTG were transformed directly into Enterobacter cloacae, Klebsiella pneumonia or Salmonella typhimurium. The transformed cells were then assayed for growth inhibition according to the method of Example 1. After growth in liquid culture, cells were plated at various serial dilutions and a score determined by calculating the log difference in growth for INDUCED vs. UNINDUCED antisense RNA expression as determined by the maximum 10 fold dilution at which a colony was observed. If there was no effect of antisense RNA expression in a microorganism, the clone is minus in Table V below. In contrast, a positive in Table V below means that at least 10 fold more cells were required to observe a colony on the induced plate than on the non-induced plate under the conditions used and in that microorganism.

Row | Molecule | Sensitivity of K. pneumoniae to antisense nucleic acid (growth inhibition, induced vs. uninduced)
1 | B1 | −
2 | B2 | −
3 | B3 | −
4 | B4 | −
5 | B5 | −
6 | B6 | −
7 | B7 | −
8 | B8 | −
9 | B9 | −
10 | B10 | −
11 | B11 | −
12 | B12 | −
13 | B13 | −
14 | B14 | −
15 | B15 | −
